{"source": "paper PMC2924460", "about": "(Arteriosclerosis, thrombosis, and vascular biology, 2010)", "proteins": {"B1": {"name": "thromboxane A2 receptor alpha (TPα), fused to renilla luciferase (TPαrLUC) or to yellow fluorescent protein (TPαYFP) (receptor, UniProt P21731 1-343, looked up)", "chain": "MWPNGSSLGPCFRPTNITLEERRLIASPWFAASFCVVGLASNLLALSVLAGARQGGSHTRSSFLTFLCGLVLTDFLGLLVTGTIVVSQHAALFEWHAVDPGCRLCRFMGVVMIFFGLSPLLLGAAMASERYLGITRPFSRPAVASQRRAWATVGLVWAAALALGLLPLLGVGRYTVQYPGSWCFLTLGAESGDVAFGLLFSMLGGLSVGLSFLLNTVSVATLCHVYHGQEAAQQRPRDSEVEMMAQLLGIMVVASVCWLPLLVFIAQTVLRNPPAMSPAGQLSRTTEKELLIYLRVATWNQILDPWVYILFRRAVLRRLQPRLSTRPRSLSLQPQLTQRSGLQ"}}, "biological_target": "the molecule itself", "experiment": "FRET or BRET"}
{"protein": "B1", "values": [{"measurement": "BRET50", "result": 1.24, "unit": "YFP fold over basal"}]}
